Positions count from the first letter of the chain named.
B1: 3-MP01E03 (VHH)
VHH: QVQLVESGGGLVQAGGSLRLSCTASGRTLSSYSMAWFRQAADKGREFVTAISSSGVVTHVLDSVKGRFTISRDNAKNTVYLQMNSLQPEDTALYFCAGTASSYSTYEANYNYWGQGTLVTVSS
notes: periplasmic extract; also called FJ1427_P035MP01E03
B2: FJ1427_P035MP01H07 (VHH)
VHH: B1 VHH with Q1E, T23A, S31G, S33A, A40P, A41P, V56I, G98A, T105D
notes: periplasmic extract; also called clone nr; 56
B3: 07-MP01G08 (VHH)
VHH: EVQLVESGGGLVQAGGSLRLSCAASGRAFSMYNMGWFRQAPGKEREFVAATGWSGANTPYADSVKGRFTISRDNTQNTVYLQMNSLKPEDTATYYCAADSIRLRSDVTRIPLEYDYWGQGTQVTVSS
notes: periplasmic extract; also called FJ1427_P035MP01G08
B4: FJ1427_P035MP05D06 (VHH)
VHH: QVQLVESGGGLVQAGDSLRLSCAASGFNFGWHAMGWFRQAPGKEREFVATITWTGRDTYYADSVRGRFTISKDNAKDTLFLQMNSLRPDDTGVYYCAKARERATWAYSEDDCDYWGQGTQVTVSS
notes: periplasmic extract; also called clone nr
B5: 13-MP05E12 (VHH)
VHH: B4 VHH with V5Q
notes: periplasmic extract; The row prints V ID 13-MP05E12 beside Clone ID ...MP05H07; clone nr; also called FJ1427_P035MP05H07
B6: FJ1427_P035MP05H05 (VHH)
VHH: B4 VHH with D77N, N84S
notes: as for B4
B7: FJ1427_P035MP05F06 (VHH)
VHH: B4 VHH with Q1E
notes: periplasmic extract; also called clone nr; 430
B8: 5-MP01F05 (VHH)
VHH: EVQLVESGGGLVQAGGSLRLSCAASIRAFTTWSMAWFRQAPGKEREYVARINVSGSVTYYADFVKGRFTISRDNAKKTMYLEMNNLKPEDTALYYCAADRTGVGTNDYNYWGQGTQVTVSS
notes: periplasmic extract; also called FJ1427_P035MP01F05
B9: 6-MP01G05 (VHH)
VHH: QVQLQESGGGLVQAGGSLRLSCAASGRTFSSYAMGWFRQAPGKEREFVAVISWNVDNTEYTDSVKGRFTISRDNDKNMVYLQMNSLKPEDTAVYYCAADSIPLSSDMSPTATEYGYWGQGTQVTVSS
notes: periplasmic extract; also called FJ1427_P035MP01G05
B10: FJ1427_P035MP01A11 (VHH)
VHH: QVQLVESGGGLVQPGGSLRLSCAASGRTFETHNMGWFRRAPGKEREFVAVISWNVDSTEYTDSVKGRFTISRDNDKNMVYLQMNSLKPEDTGVYYCAADNIPLSSDMSPTAAEYGYWGQGTQVTVSS
notes: periplasmic extract; also called clone nr; 81
B11: FJ1427_P035MP01E11 (VHH)
VHH: QVQLVESGGGLVQPGGSLRLSCAASGFTFSNNFMSWVRQAPGKGLEWVSTISYFGDSTRYAESVKGRFTISRDNEKNTLYLQMNNLKPEDTAVYYCAKATSYDSIRSGSRGRGTQVTVSS
notes: periplasmic extract; also called clone nr; 85
B12: FJ1427_P035MP01F03 (VHH)
VHH: B11 VHH with F54G, D56E, R59T, E75A, I105V, R112Q
notes: periplasmic extract; also called clone nr; 22
B13: FJ1427_P035MP01H05 (VHH)
VHH: B11 VHH with Q1E, R59T, E75A
notes: periplasmic extract; also called clone nr; 40
B14: FJ1427_P035MP01G04 (VHH)
VHH: B11 VHH with Y80H
notes: periplasmic extract; also called clone nr; 31
B15: 10-MP05F03 (VHH)
VHH: QVQLVESGGGLVQAGGSLRLSCAASGIPFDNYAMGWFRQAPGKEREFVAARDLEGIITRYGDSVKGRFTISRGNAKNTVFLQMNSLKPEDTAVYYCAARDGGVVAGSRSSAQYNYWGQGTQVTVSS
notes: periplasmic extract; also called FJ1427_P035MP05F03

Assays:
human IL-2Rα [1] = biological target: T1, human IL-2Rα (human, UniProt P01589 22-240, limits assumed); experiment: SPR, P.E. on immobilised antigen
T1 construct: recombinant protein; also called hu IL-2R; human IL-2Ra
T1 sequence: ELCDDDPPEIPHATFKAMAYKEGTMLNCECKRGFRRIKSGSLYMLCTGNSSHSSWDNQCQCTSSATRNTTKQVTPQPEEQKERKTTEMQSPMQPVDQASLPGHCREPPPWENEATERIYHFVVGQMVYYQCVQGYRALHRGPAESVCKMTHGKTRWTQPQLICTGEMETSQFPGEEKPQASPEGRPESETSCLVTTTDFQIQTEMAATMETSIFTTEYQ
Method: SPR was performed to determine dissociation rates using Biacore 3000 instrument (GE Healthcare). Briefly, human and mouse IL-2R proteins were immobilized on carboxylmethyl dextran sensor chip (CM5) at approximately 2500 RUs using amine coupling in acetate buffer (GE Healthcare). The VHH-containing P.E. were loaded with a flow rate of 30 uL/min and the off-rates were measured over a 120s period.

human IL-2Rα [2] = biological target: T1, human IL-2Rα; experiment: ELISA, P.E. on coated antigen
Method: In a binding ELISA, human or mouse IL-2Rα, IL-2Rβ and IL-2Rγ proteins were coated directly on maxisorp microtiter plates overnight at 4° C. Free binding sites were blocked using 4% Marvel in PBS for 1 hour. Next, 1:5 dilution of P.E. in 1% Marvel/PBS were added to wells and incubated for 1 hour. […] Binding specificity was determined based on O.D. at 450 nm values compared to negative controls.

| Binder | koff (human IL-2Rα [1]) | OD (PE binding ELISA) (human IL-2Rα [2]) |
| --- | --- | --- |
| B1 | 0.000799 s⁻¹ | 2.54 OD450 nm |
| B2 | 0.00112 s⁻¹ | 2.14 OD450 nm |
| B3 | 0.00184 s⁻¹ | 2.57 OD450 nm |
| B4 | 0.000677 s⁻¹ | 2.51 OD450 nm |
| B5 | 0.000742 s⁻¹ | 2.34 OD450 nm |
| B6 | 0.000591 s⁻¹ | 2.51 OD450 nm |
| B7 | 0.00067 s⁻¹ | 2.51 OD450 nm |
| B8 | 0.00042 s⁻¹ | 2.62 OD450 nm |
| B9 | 0.0206 s⁻¹ | 1.79 OD450 nm |
| B10 | 0.000778 s⁻¹ | 2.81 OD450 nm |
| B11 | 0.000704 s⁻¹ | 2.69 OD450 nm |
| B12 | 0.00327 s⁻¹ | 2.87 OD450 nm |
| B13 | 0.00276 s⁻¹ | 2.65 OD450 nm |
| B14 | 0.00107 s⁻¹ | 2.79 OD450 nm |
| B15 | 0.000639 s⁻¹ | 2.46 OD450 nm |
